Compound in series [1]: CC(=O)NCCCC[C@H](NC(=O)[C@H](CC(C)C)NC(=O)[C@H](CCCCN)NC(=O)[C@H](Cc1ccc(O)cc1)NC(C)=O)C(=O)Nc1ccc2c(C)cc(=O)oc2c1
Kind of series: (§1) Substrate activity at human N-terminal His-tagged SIRT1 (183 to 664 residues) expressed in Escherichia coli assessed as Vmax measured after 1 hr in presence of NAD+ and trypsin by Michaelis-Menten kinetic model based fluorescence assay.

Compound in series [2]: CC[C@H](C)[C@H](NC(=O)[C@H](CC(C)C)NC(=O)[C@H](CCCNC(=N)N)NC(C)=O)C(=O)N[C@@H](CCCCNC(C)=O)C(=O)Nc1ccc2c(C)cc(=O)oc2c1
The series is described as §1.

Compound in series [3]: CC(=O)NCCCC[C@H](NC(=O)[C@H](CC(C)C)NC(=O)[C@H](CCCCN)NC(=O)[C@H](Cc1ccc(O)cc1)NC(C)=O)C(=O)Nc1ccc2c(C)cc(=O)oc2c1
Kind of series: (§2) Substrate activity at human N-terminal His-tagged SIRT1 (183 to 664 residues) expressed in Escherichia coli assessed as ratio of Kcat to Km measured after 1 hr in presence of NAD+ and trypsin by Michaelis-Menten kinetic model based fluorescence assay.

Compound in series [4]: CC[C@H](C)[C@H](NC(=O)[C@H](CC(C)C)NC(=O)[C@H](CCCNC(=N)N)NC(C)=O)C(=O)N[C@@H](CCCCNC(C)=O)C(=O)Nc1ccc2c(C)cc(=O)oc2c1
The series is described as §2.

Compound in series [5]: CC(=O)NCCCC[C@H](NC(=O)[C@H](CC(C)C)NC(=O)[C@H](CCCCN)NC(=O)[C@H](Cc1ccc(O)cc1)NC(C)=O)C(=O)Nc1ccc2c(C)cc(=O)oc2c1
Kind of series: (§3) Substrate activity at human N-terminal His-tagged SIRT1 (183 to 664 residues) expressed in Escherichia coli assessed as Kcat measured after 1 hr in presence of NAD+ and trypsin by Michaelis-Menten kinetic model based fluorescence assay.

Compound in series [6]: CC[C@H](C)[C@H](NC(=O)[C@H](CC(C)C)NC(=O)[C@H](CCCNC(=N)N)NC(C)=O)C(=O)N[C@@H](CCCCNC(C)=O)C(=O)Nc1ccc2c(C)cc(=O)oc2c1
The series is described as §3.

Compound in series [7]: CC(=O)NCCCC[C@H](NC(=O)[C@H](CC(C)C)NC(=O)[C@H](CCCCN)NC(=O)[C@H](Cc1ccc(O)cc1)NC(C)=O)C(=O)Nc1ccc2c(C)cc(=O)oc2c1
Kind of series: (§4) Substrate activity at human N-terminal His-tagged SIRT1 (183 to 664 residues) expressed in Escherichia coli assessed as Km measured after 1 hr in presence of NAD+ and trypsin by Michaelis-Menten kinetic model based fluorescence assay.

Compound in series [8]: CC[C@H](C)[C@H](NC(=O)[C@H](CC(C)C)NC(=O)[C@H](CCCNC(=N)N)NC(C)=O)C(=O)N[C@@H](CCCCNC(C)=O)C(=O)Nc1ccc2c(C)cc(=O)oc2c1
The series is described as §4.

Compound in series [9]: CC(=O)NCCCC[C@H](NC(=O)[C@H](CC(C)C)NC(=O)[C@H](CCCCN)NC(=O)[C@H](Cc1ccc(O)cc1)NC(C)=O)C(=O)Nc1ccc2c(C)cc(=O)oc2c1
Kind of series: (§5) Substrate activity at human N-terminal His-tagged SIRT3 (122 to 391 residues) expressed in Escherichia coli assessed as Vmax measured after 1 hr in presence of NAD+ and trypsin by Michaelis-Menten kinetic model based fluorescence assay.

Compound in series [10]: CC[C@H](C)[C@H](NC(=O)[C@H](CC(C)C)NC(=O)[C@H](CCCNC(=N)N)NC(C)=O)C(=O)N[C@@H](CCCCNC(C)=O)C(=O)Nc1ccc2c(C)cc(=O)oc2c1
Described as §5.

Compound in series [11]: CC(=O)NCCCC[C@H](NC(=O)[C@H](CC(C)C)NC(=O)[C@H](CCCCN)NC(=O)[C@H](Cc1ccc(O)cc1)NC(C)=O)C(=O)Nc1ccc2c(C)cc(=O)oc2c1
Kind of series: (§6) Substrate activity at human N-terminal His-tagged SIRT3 (122 to 391 residues) expressed in Escherichia coli assessed as Kcat measured after 1 hr in presence of NAD+ and trypsin by Michaelis-Menten kinetic model based fluorescence assay.

Compound in series [12]: CC[C@H](C)[C@H](NC(=O)[C@H](CC(C)C)NC(=O)[C@H](CCCNC(=N)N)NC(C)=O)C(=O)N[C@@H](CCCCNC(C)=O)C(=O)Nc1ccc2c(C)cc(=O)oc2c1
Described as §6.

Compound in series [13]: CC(=O)NCCCC[C@H](NC(=O)[C@H](CC(C)C)NC(=O)[C@H](CCCCN)NC(=O)[C@H](Cc1ccc(O)cc1)NC(C)=O)C(=O)Nc1ccc2c(C)cc(=O)oc2c1
Kind of series: (§7) Substrate activity at human N-terminal His-tagged SIRT3 (122 to 391 residues) expressed in Escherichia coli assessed as Km measured after 1 hr in presence of NAD+ and trypsin by Michaelis-Menten kinetic model based fluorescence assay.

Compound in series [14]: CC[C@H](C)[C@H](NC(=O)[C@H](CC(C)C)NC(=O)[C@H](CCCNC(=N)N)NC(C)=O)C(=O)N[C@@H](CCCCNC(C)=O)C(=O)Nc1ccc2c(C)cc(=O)oc2c1
Described as §7.

Compound in series [15]: CC(=O)NCCCC[C@H](NC(=O)[C@H](CC(C)C)NC(=O)[C@H](CCCCN)NC(=O)[C@H](Cc1ccc(O)cc1)NC(C)=O)C(=O)Nc1ccc2c(C)cc(=O)oc2c1
Briefly: (§8) Substrate activity at human N-terminal His-tagged SIRT3 (122 to 391 residues) expressed in Escherichia coli assessed as ratio of Kcat to Km measured after 1 hr in presence of NAD+ and trypsin by Michaelis-Menten kinetic model based fluorescence assay.

Compound in series [16]: CC[C@H](C)[C@H](NC(=O)[C@H](CC(C)C)NC(=O)[C@H](CCCNC(=N)N)NC(C)=O)C(=O)N[C@@H](CCCCNC(C)=O)C(=O)Nc1ccc2c(C)cc(=O)oc2c1
Described as §8.

Consider 2 proteins from ChEMBL document CHEMBL4680222, “Sensitive fluorogenic substrates for sirtuin deacylase inhibitor discovery” (Eur J Med Chem, 2020).

B1: NAD-dependent protein deacetylase sirtuin-1 (Homo sapiens), Q96EB6 (protein)
chain: MADEAALALQPGGSPSAAGADREAASSPAGEPLRKRPRRDGPGLERSPGEPGGAAPEREVPAAARGCPGAAAAALWREAEAEAAAAGGEQEAQATAAAGEGDNGPGLQGPSREPPLADNLYDEDDDDEGEEEEEAAAAAIGYRDNLLFGDEIITNGFHSCESDEEDRASHASSSDWTPRPRIGPYTFVQQHLMIGTDPRTILKDLLPETIPPPELDDMTLWQIVINILSEPPKRKKRKDINTIEDAVKLLQECKKIIVLTGAGVSVSCGIPDFRSRDGIYARLAVDFPDLPDPQAMFDIEYFRKDPRPFFKFAKEIYPGQFQPSLCHKFIALSDKEGKLLRNYTQNIDTLEQVAGIQRIIQCHGSFATASCLICKYKVDCEAVRGDIFNQVVPRCPRCPADEPLAIMKPEIVFFGENLPEQFHRAMKYDKDEVDLLIVIGSSLKVRPVALIPSSIPHEVPQILINREPLPHLHFDVELLGDCDVIINELCHRLGGEYAKLCCNPVKLSEITEKPPRTQKELAYLSELPPTPLHVSEDSSSPERTSPPDSSVIVTLLDQAAKSNDDLDVSESKGCMEEKPQEVQTSRNVESIAEQMENPDLKNVGSSTGEKNERTSVAGTVRKCWPNRVAKEQISRRLDGNQYLFLPPNRYIFHGAEVYSDSEDDVLSSSSCGSNSDSGTCQSPSLEEPMEDESEIEEFYNGLEDEPDVPERAGGAGFGTDGDDQEAINEAISVKQEVTDMNYPSNKS
Turning to B1, the Vmax in series [1] is 208 nM/min; in [2], 454 nM/min. Also, the kcat/Km amounted to 226 M⁻¹ s⁻¹ in series [3] and 669 M⁻¹ s⁻¹ in [4]. The catalytic constant (kcat) is 17.3 10^-3/s in series [5] and 37.9 10^-3/s in series [6]. The Km in [7] came to 76.5 µM; in series [8], 56.6 µM.

B2: NAD-dependent protein deacetylase sirtuin-3, mitochondrial (Homo sapiens), Q9NTG7 (protein)
chain: MAFWGWRAAAALRLWGRVVERVEAGGGVGPFQACGCRLVLGGRDDVSAGLRGSHGARGEPLDPARPLQRPPRPEVPRAFRRQPRAAAPSFFFSSIKGGRRSISFSVGASSVVGSGGSSDKGKLSLQDVAELIRARACQRVVVMVGAGISTPSGIPDFRSPGSGLYSNLQQYDLPYPEAIFELPFFFHNPKPFFTLAKELYPGNYKPNVTHYFLRLLHDKGLLLRLYTQNIDGLERVSGIPASKLVEAHGTFASATCTVCQRPFPGEDIRADVMADRVPRCPVCTGVVKPDIVFFGEPLPQRFLLHVVDFPMADLLLILGTSLEVEPFASLTEAVRSSVPRLLINRDLVGPLAWHPRSRDVAQLGDVVHGVESLVELLGWTEEMRDLVQRETGKLDGPDK
On to B2, for which the maximum rate (Vmax) worked out at 14.6 nM/min in series [9] and 33.5 nM/min in series [10]. The results for the kcat in series [11] and in series [12] were 2.44 10^-3/s and 5.58 10^-3/s, respectively. Also, the Km in [13] was 63.4 µM; in series [14], 6.52 µM. The values for the specificity constant (kcat/Km) in series [15] and in series [16] were 26.1 M⁻¹ s⁻¹ and 850 M⁻¹ s⁻¹, respectively.

As usually defined, the Vmax is the rate approached at saturating substrate. For orientation: kcat/Km means the turnover number divided by the Michaelis constant. In general, kcat refers to the number of substrate molecules converted per active site and unit of time at saturation. A word on the Km: it is the concentration of substrate that gives half-maximal velocity.
